{"source": "patent US20040023332A1", "about": "(GENEXINE, published 2004)", "molecules": {"B1": {"name": "human IL-12p35 subunit, wild type (ligand, UniProt P29459 23-219, looked up)", "chain": "RNLPVATPDPGMFPCLHHSQNLLRAVSNMLQKARQTLEFYPCTSEEIDHEDITKDKTSTVEACLPLELTKNESCLNSRETSFITNGSCLASRKTSFMMALCLSSIYEDLKMYQVEFKTMNAKLLMDPKRQIFLDQNMLAVIDELMQALNFNSETVPQKSSLEEPDFYKTKIKLCILLHAFRIRAVTIDRVMSYLNAS", "notes": "also called hp35"}, "B2": {"name": "human IL-12p40 mutant hp40-N222L (ligand)", "chain": "IWELKKDVYVVELDWYPDAPGEMVVLTCDTPEEDGITWTLDQSSEVLGSGKTLTIQVKEFGDAGQYTCHKGGEVLSHSLLLLHKKEDGIWSTDILKDQKEPKNKTFLRCEAKNYSGRFTCWWLTTISTDLTFSVKSSRGSSDPQGVTCGAATLSAERVRGDNKEYEYSVECQEDSACPAAEESLPIEVMVDAVHKLKYELYTSSFFIRDIIKPDPPKNLQLKPLKNSRQVEVSWEYPDTWSTPHSYFSLTFCVQVQGKSKREKKDRVFTDKTSATVICRKNASISVRAQDRYYSSSWSEWASVPCS", "notes": "NO; 3 already carries N222L; also called Leu-222"}, "B3": {"name": "human IL-12p40 mutant hp40-N222Q (ligand)", "chain": "B2 chain with L200Q", "notes": "NO; 4 already carries N222Q; also called Gln-222"}}, "note": "Numbering of substitutions follows the chain as printed. Names and notes keep the numbering of the source.", "data": [{"target": "human IL-12p40 subunit, wild type (human) (UniProt P29460)", "assay": "IL-12p70 ELISA of lysates of co-transfected COS-7 cells", "units": {"IL-12p70 heterodimer in cell lysates (% of wild type)": "%"}, "values": [{"molecule": "human IL-12p35 double mutant hp35-N127,141Q (from UniProt P29459 23-219) (ligand)", "IL-12p70 heterodimer in cell lysates (% of wild type)": 71}, {"molecule": "human IL-12p35 mutant hp35-N251Q (from UniProt P29459 23-219) (ligand)", "IL-12p70 heterodimer in cell lysates (% of wild type)": 88}, {"molecule": "human IL-12p35 mutant hp35-N127Q (from UniProt P29459 23-219) (ligand)", "IL-12p70 heterodimer in cell lysates (% of wild type)": 72}, {"molecule": "human IL-12p35 mutant hp35-N141Q (from UniProt P29459 23-219) (ligand)", "IL-12p70 heterodimer in cell lysates (% of wild type)": 90}, {"molecule": "B1", "IL-12p70 heterodimer in cell lysates (% of wild type)": 100}]}, {"target": "B1", "assay": "IL-12p70 ELISA of lysates of co-transfected COS-7 cells", "protocol": "1.5 μg/Ml of tunicamycin was added in some experiments. After incubation for another 24 hours, supernatants and cell pellets were harvested by centrifugation. Supernatants were used for the SEAP assay and cell pellets were resuspended in 200 μl of lysis solution (Promega). The levels of IL-12p70 and IL-12p40 in both supernatants and cell lysates were measured by ELISA (R&D system). For immunoblotting, 10% or 12% sodium dodecyl-sulfate-polyacrylamide electrophoresis (SDS-PAGE) was conducted with supernatants and cell lysates. The proteins separated from the above experiment was electrotransfered to nylon membrane (Amersham). The proteins absorbed to the membrane were obtained by using biotin-labeled human IL-12 antibody (Amersham), horseradish peroxidase (HRP)-labeled streptavidin (PharMingen) and ECL kit (Amersham). The levels of IL-12p70 or IL-12p40 expression were measured by ELISA and presented relatively to the level of wild type, which is arbitrarily set at 100%.\n^aTotal 20 μg of each DNA contruct was used for transfection into COS-7 cells by electroporation. For simultaneous transfection of two DNA constructs, 10 μg of each DNA construct was used. ^bThe levels of human and mouse IL-12p70 or IL-12p40 expression were measured by ELISA and presented relative to the wild-type, which is arbitrarily set at 100%. ^cThe equal amount of p70 in each mutant supernatant was used in the IFN-γ induction assay. The levels of induced IFN-γ were measured by ELISA and presented relative to the level of wild type, which is arbitrarily set at 100%. ^dIL-12p40 indicates the monomeric and homodimeric p40 form of IL-12p40, but not the p40 part of IL-12p70. ^eIL-12p70 indicates the heterodimer which consists of IL-12p35 and IL-12p40. ^fThe plasmid backbone used for independent expression of hIL-12p40, hIL-12p35, and their derivatives is pCIN-neo and is descibed as mock. ^g<1 indicates values below the detectable range of ELISA assay. ^hWhen the equal amount of p70 in each indicated mutant (hp40-N135Q) and wild-type supernatant is used in IFN-γ induction assay, the insufficient hp40 in each mutant supernatant compared to wild-type supernatantwas reconstituted with hp40 supernatant obtained after tranfection with hp40 only ⁱNumbers in ( ) mean each amount (μg) of cotransfected plasmid, pCIN-hp40-N222Q and pCIN-hp35.", "units": {"IL-12p70 heterodimer in cell lysates (% of wild type)": "%"}, "values": [{"molecule": "human IL-12p40 mutant hp40-N125Q (from UniProt P29460 23-328) (ligand)", "IL-12p70 heterodimer in cell lysates (% of wild type)": 97}, {"molecule": "human IL-12p40 mutant hp40-N135Q (from UniProt P29460 23-328) (ligand)", "IL-12p70 heterodimer in cell lysates (% of wild type)": 99}, {"molecule": "B2", "IL-12p70 heterodimer in cell lysates (% of wild type)": 89}, {"molecule": "B3", "IL-12p70 heterodimer in cell lysates (% of wild type)": 90}]}, {"target": "B3", "assay": "co-transfection of hp40-N222Q plasmid with varied amounts of hp35 DNA, IL-12p70 ELISA", "values": [{"molecule": "B1", "binding result": "binds"}]}]}
